Test [1] concerns the target T1, mouse latent myostatin (mouse, UniProt O08689 26-267; O08689 268-376).
T1 sequence 1: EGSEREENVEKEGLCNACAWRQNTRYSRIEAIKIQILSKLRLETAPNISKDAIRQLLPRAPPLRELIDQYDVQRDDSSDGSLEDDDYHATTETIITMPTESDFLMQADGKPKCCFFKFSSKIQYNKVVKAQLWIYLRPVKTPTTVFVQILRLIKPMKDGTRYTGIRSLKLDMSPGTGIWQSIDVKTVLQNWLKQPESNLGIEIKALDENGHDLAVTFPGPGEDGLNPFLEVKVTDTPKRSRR
T1 sequence 2: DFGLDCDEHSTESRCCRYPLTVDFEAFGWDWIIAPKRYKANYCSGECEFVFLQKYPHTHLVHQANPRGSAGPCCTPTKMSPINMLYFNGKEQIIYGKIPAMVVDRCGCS
Description: SPR 37C pH7.4; pH 7.4.

Test [2] addresses T2, cynomolgus monkey latent myostatin (cynomolgus monkey, UniProt Q95J86 25-266; Q95J86 267-375, limits assumed).
T2 construct: also called cyno latent myostatin
T2 sequence 1: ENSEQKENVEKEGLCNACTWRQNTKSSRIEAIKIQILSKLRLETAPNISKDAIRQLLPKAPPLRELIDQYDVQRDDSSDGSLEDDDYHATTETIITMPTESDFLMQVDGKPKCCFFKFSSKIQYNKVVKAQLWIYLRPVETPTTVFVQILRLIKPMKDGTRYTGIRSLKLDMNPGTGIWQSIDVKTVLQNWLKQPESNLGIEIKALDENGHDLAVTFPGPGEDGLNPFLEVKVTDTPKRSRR
T2 sequence 2: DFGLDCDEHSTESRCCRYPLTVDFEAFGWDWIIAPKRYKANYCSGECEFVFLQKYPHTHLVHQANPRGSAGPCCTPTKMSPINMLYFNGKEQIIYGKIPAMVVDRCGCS
In words: SPR 37C pH7.4; pH 7.4.

In test [3] the target is T3, human latent myostatin (human, UniProt O14793 25-266; O14793 267-375).
T3 construct: non-covalent complex of two propeptides and the mature homodimer; also called human myostatin latent form
T3 sequence 1: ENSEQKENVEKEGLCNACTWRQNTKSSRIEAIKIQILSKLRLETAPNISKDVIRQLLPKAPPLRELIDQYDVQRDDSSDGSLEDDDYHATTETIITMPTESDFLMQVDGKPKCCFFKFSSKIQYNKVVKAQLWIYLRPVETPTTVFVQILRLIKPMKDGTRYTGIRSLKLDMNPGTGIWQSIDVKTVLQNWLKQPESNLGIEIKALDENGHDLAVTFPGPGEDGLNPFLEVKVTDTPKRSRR
T3 sequence 2: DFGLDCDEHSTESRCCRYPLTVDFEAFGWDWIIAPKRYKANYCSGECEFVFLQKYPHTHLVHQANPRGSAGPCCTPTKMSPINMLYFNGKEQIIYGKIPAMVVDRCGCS
Description: SPR 37C pH7.4; pH 7.4.

Test [4] concerns the target T1, mouse latent myostatin. Description: SPR 37C pH5.8; pH 5.8.
In test [5] the target is T2, cynomolgus monkey latent myostatin. Description: SPR 37C pH5.8; pH 5.8.
The target of test [6] is T3, human latent myostatin. In words: SPR 37C pH5.8; pH 5.8.
Test [7] has as its target T1, mouse latent myostatin. Description: SPR 37C.
Test [8] addresses T2, cynomolgus monkey latent myostatin. Description: SPR 37C.
For test [9], the target named is T3, human latent myostatin. Description: SPR 37C.

B1: MS_M103240H1246-SG1/M103202L1045-SK1 (antibody, human IgG1, kappa, V domains shown)
VH: QVQLVESGGGLVQPGGSLRLSCAVSGIDLSHEDISWVRQAPGKGLEWVSIISYAGSKYYASWAKGRLTISKDTSKNQVVLTMTNMDPVDTATYYCARGVPAYSHGGDLWGQGTLVTVSS
VL: DIVMTQSPATLSLSPGERATLSCTTSQSVYHENWLSWFQQKPGQPPKLLIYWASTLAYGVPSRFSGSGSGTDFTLTISSLQPEDAATYYCAGGYGGGRYAFGQGTKVEIKR
notes: also called MS1032LO25-SG1
One may read the Kd as the constant that tells how readily two partners part at equilibrium. Regarding B1, the Kd is 0.259 nM in the test with mouse latent myostatin [1]; 0.34 nM in [2]; 0.276 nM with human latent myostatin [3]; 9.88 nM in the test with mouse latent myostatin [4]; 14.1 nM in test [5]; 25.5 nM with human latent myostatin [6]. In addition, the “ratio of KD at pH 5.8/pH7.4” value in the test with mouse latent myostatin [7] worked out at 38; in [8] it was 41; in the test with human latent myostatin [9] it was 92.

B2: MS_M103205H795-SG1/M103202L889-SK1 (antibody, human IgG1, kappa)
heavy: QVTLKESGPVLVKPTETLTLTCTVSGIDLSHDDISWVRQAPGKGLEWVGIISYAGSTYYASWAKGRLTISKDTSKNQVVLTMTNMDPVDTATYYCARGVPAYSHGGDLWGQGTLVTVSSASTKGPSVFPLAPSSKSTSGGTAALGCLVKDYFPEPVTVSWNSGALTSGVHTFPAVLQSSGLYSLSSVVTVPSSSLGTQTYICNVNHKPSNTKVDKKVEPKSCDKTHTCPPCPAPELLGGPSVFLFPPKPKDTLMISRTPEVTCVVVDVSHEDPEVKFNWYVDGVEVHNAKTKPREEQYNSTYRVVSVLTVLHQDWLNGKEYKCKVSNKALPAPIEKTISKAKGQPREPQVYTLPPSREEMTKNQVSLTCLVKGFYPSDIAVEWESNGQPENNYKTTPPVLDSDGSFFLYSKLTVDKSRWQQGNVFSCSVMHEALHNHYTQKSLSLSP
light: DIVMTQSPATLSLSPGERATLSCTSSQSVYHANWLSWFQQKPGQPPKLLIYWASTLAYGVPSRFSGSGSGTDFTLTISSLQPEDAATYYCAGGYGGGRYAFGQGTKVEIKRTVAAPSVFIFPPSDEQLKSGTASVVCLLNNFYPREAKVQWKVDNALQSGNSQESVTEQDSKDSTYSLSSTLTLSKADYEKHKVYACEVTHQGLSSPVTKSFNRGEC
notes: also called MS1032LO06-SG1
Turning to B2, the dissociation constant (Kd) in the test with mouse latent myostatin [1] was 0.299 nM; in test [2], 0.343 nM; with human latent myostatin [3], 0.285 nM; in the test with mouse latent myostatin [4] it was 22.6 nM; in test [5], 25.9 nM; with human latent myostatin [6], 34 nM. Besides, the “ratio of KD at pH 5.8/pH7.4” value was determined as 76 in the test with mouse latent myostatin [7], 76 in test [8] and 119 with human latent myostatin [9].

B3: MS_M103240H795-SG1/M103202L1045-SK1 (antibody, human IgG1, kappa)
heavy: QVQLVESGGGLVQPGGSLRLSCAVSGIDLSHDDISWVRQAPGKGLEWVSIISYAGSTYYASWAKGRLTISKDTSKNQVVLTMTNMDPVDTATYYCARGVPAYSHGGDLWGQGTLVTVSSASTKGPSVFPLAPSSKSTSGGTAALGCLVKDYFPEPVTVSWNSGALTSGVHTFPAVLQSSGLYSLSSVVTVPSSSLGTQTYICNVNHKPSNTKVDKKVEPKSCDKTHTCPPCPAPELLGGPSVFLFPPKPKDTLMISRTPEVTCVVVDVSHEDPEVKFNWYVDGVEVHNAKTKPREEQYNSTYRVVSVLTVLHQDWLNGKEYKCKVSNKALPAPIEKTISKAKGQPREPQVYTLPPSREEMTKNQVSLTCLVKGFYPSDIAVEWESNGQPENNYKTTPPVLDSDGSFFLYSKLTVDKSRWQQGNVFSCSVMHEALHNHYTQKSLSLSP
light: DIVMTQSPATLSLSPGERATLSCTTSQSVYHENWLSWFQQKPGQPPKLLIYWASTLAYGVPSRFSGSGSGTDFTLTISSLQPEDAATYYCAGGYGGGRYAFGQGTKVEIKRTVAAPSVFIFPPSDEQLKSGTASVVCLLNNFYPREAKVQWKVDNALQSGNSQESVTEQDSKDSTYSLSSTLTLSKADYEKHKVYACEVTHQGLSSPVTKSFNRGEC
notes: also called MS1032LO19-SG1
Take B3: the Kd was found to be 0.271 nM with mouse latent myostatin [1]; 0.326 nM in [2]; 0.273 nM with human latent myostatin [3]; 28.7 nM in the test with mouse latent myostatin [4]; 35.6 nM in test [5]; 45.8 nM with human latent myostatin [6]. For the same molecule, the “ratio of KD at pH 5.8/pH7.4” value worked out at 106 in the test with mouse latent myostatin [7], 109 in [8] and 168 in the test with human latent myostatin [9].

B4: MS_M103205H1047-SG1/M103202L889-SK1 (antibody, human IgG1, kappa, V domains shown)
VH: QVTLKESGPVLVKPTETLTLTCTVSGIDLSHTDISWVRQAPGKGLEWVGIISYAGKKYYASWAKGRLTISKDTSKNQVVLTMTNMDPVDTATYYCARGVPAYSHGGDLWGQGTLVTVSS
VL: DIVMTQSPATLSLSPGERATLSCTSSQSVYHANWLSWFQQKPGQPPKLLIYWASTLAYGVPSRFSGSGSGTDFTLTISSLQPEDAATYYCAGGYGGGRYAFGQGTKVEIKR
notes: also called MS1032LO11-SG1
Take B4: the dissociation constant (Kd) with mouse latent myostatin [1] came out at 0.362 nM; in test [2], 0.502 nM; in the test with human latent myostatin [3] it was 0.419 nM; in the test with mouse latent myostatin [4], 29.2 nM; in test [5], 43.5 nM; with human latent myostatin [6] it was 143 nM. For the same molecule, the results for the “ratio of KD at pH 5.8/pH7.4” value (with mouse latent myostatin [7]; in [8]; with human latent myostatin [9]) were 81, 87 and 341, respectively.

B5: MS_M103205H1057-SG1/M103202L889-SK1 (antibody, human IgG1, kappa, V domains shown)
VH: QVTLKESGPVLVKPTETLTLTCTVSGIDLSHTDISWVRQAPGKGLEWVGIISYAGSKYKASWAKGRLTISKDTSKNQVVLTMTNMDPVDTATYYCARGVPAYSHGGDLWGQGTLVTVSS
VL: DIVMTQSPATLSLSPGERATLSCTSSQSVYHANWLSWFQQKPGQPPKLLIYWASTLAYGVPSRFSGSGSGTDFTLTISSLQPEDAATYYCAGGYGGGRYAFGQGTKVEIKR
notes: also called MS1032LO12-SG1
B5: the Kd in the test with mouse latent myostatin [1] turned out to be 0.413 nM; in [2] it was 0.492 nM; in the test with human latent myostatin [3], 0.407 nM; in the test with mouse latent myostatin [4] it was 24.8 nM; in test [5] it was 35.8 nM; in the test with human latent myostatin [6] it was 84.9 nM. Further, the entries for the “ratio of KD at pH 5.8/pH7.4” value (in the test with mouse latent myostatin [7]; in [8]; with human latent myostatin [9]) were 60, 73 and 209, respectively.

B6: MS_M103245H795-SG1/M103202L1045-SK1 (antibody, human IgG1, kappa, V domains shown)
VH: QVTLKESGPVLVKPTETLTLTCKVSGIDLSHDDISWVRQAPGKGLEWVSIISYAGSTYYASWAKGRLTISKDTSKNQVVLTMTNMDPVDTATYYCARGVPAYSHGGDLWGQGTLVTVSS
VL: DIVMTQSPATLSLSPGERATLSCTTSQSVYHENWLSWFQQKPGQPPKLLIYWASTLAYGVPSRFSGSGSGTDFTLTISSLQPEDAATYYCAGGYGGGRYAFGQGTKVEIKR
notes: also called MS1032LO21-SG1
B6: the Kd with mouse latent myostatin [1] was 0.261 nM; in test [2] it was 0.309 nM; with human latent myostatin [3], 0.257 nM; in the test with mouse latent myostatin [4] it was 29.4 nM; in test [5] it was 31 nM; in the test with human latent myostatin [6], 52.3 nM. Also, the “ratio of KD at pH 5.8/pH7.4” value with mouse latent myostatin [7] turned out to be 113; in test [8] it was 100; in the test with human latent myostatin [9] it was 204.

B7: MS_M103205H1046-SG1/M103202L889-SK1 (antibody, human IgG1, kappa, V domains shown)
VH: QVTLKESGPVLVKPTETLTLTCTVSGIDLSHTDISWVRQAPGKGLEWVGIISYAGKTYYASWAKKRLTISKDTSKNQVVLTMTNMDPVDTATYYCARGVPAYSHGGDLWGQGTLVTVSS
VL: DIVMTQSPATLSLSPGERATLSCTSSQSVYHANWLSWFQQKPGQPPKLLIYWASTLAYGVPSRFSGSGSGTDFTLTISSLQPEDAATYYCAGGYGGGRYAFGQGTKVEIKR
notes: also called MS1032LO10-SG1
Consider B7, for which the Kd with mouse latent myostatin [1] came to 0.314 nM; in test [2], 0.419 nM; in the test with human latent myostatin [3], 0.351 nM; with mouse latent myostatin [4], 10.9 nM; in test [5], 16.1 nM; with human latent myostatin [6] it was 43.8 nM. Moreover, the “ratio of KD at pH 5.8/pH7.4” value was determined as 35 in the test with mouse latent myostatin [7], 38 in test [8] and 125 with human latent myostatin [9].

B8: MS_M103245H1233-SG1/M103202L1045-SK1 (antibody, human IgG1, kappa, V domains shown)
VH: QVTLKESGPVLVKPTETLTLTCKVSGIDLSHEDISWVRQAPGKGLEWVSIISYAGSTYYASWAKGRLTISKDTSKNQVVLTMTNMDPVDTATYYCARGVPAYSHGGDLWGQGTLVTVSS
VL: DIVMTQSPATLSLSPGERATLSCTTSQSVYHENWLSWFQQKPGQPPKLLIYWASTLAYGVPSRFSGSGSGTDFTLTISSLQPEDAATYYCAGGYGGGRYAFGQGTKVEIKR
notes: also called MS1032LO23-SG1
For B8, the dissociation constant (Kd) with mouse latent myostatin [1] came to 0.266 nM; in test [2], 0.299 nM; in the test with human latent myostatin [3] it was 0.26 nM; with mouse latent myostatin [4], 6.4 nM; in [5], 7.71 nM; in the test with human latent myostatin [6], 16.1 nM. In addition, the entries for the “ratio of KD at pH 5.8/pH7.4” value (with mouse latent myostatin [7]; in [8]; with human latent myostatin [9]) were 24, 26 and 62, respectively.

B9: MS_M103205H795-SG1/M103202L1060-SK1 (antibody, human IgG1, kappa, V domains shown)
VH: QVTLKESGPVLVKPTETLTLTCTVSGIDLSHDDISWVRQAPGKGLEWVGIISYAGSTYYASWAKGRLTISKDTSKNQVVLTMTNMDPVDTATYYCARGVPAYSHGGDLWGQGTLVTVSS
VL: DIVMTQSPATLSLSPGERATLSCTSSQSVFHENWLSWFQQKPGQPPKLLIYWASTLAWGVPSRFSGSGSGTDFTLTISSLQPEDAATYYCAGGYGGGRYAFGQGTKVEIKR
notes: also called MS1032LO24-SG1
In the case of B9, the Kd came out at 0.176 nM with mouse latent myostatin [1]; 0.189 nM in test [2]; 0.164 nM with human latent myostatin [3]; 1.02 nM in the test with mouse latent myostatin [4]; 0.929 nM in [5]; 1.52 nM with human latent myostatin [6]. Further, the results for the “ratio of KD at pH 5.8/pH7.4” value (in the test with mouse latent myostatin [7]; in [8]; in the test with human latent myostatin [9]) were 6, 5 and 9, respectively.

B10: MS_M103205H1004-SG1/M103202L889-SK1 (antibody, human IgG1, kappa, V domains shown)
VH: QVTLKESGPVLVKPTETLTLTCTVSGIDLSHDDISWVRQAPGKGLEWVGIISYAGSMYYASWAKGRLTISKDTSKNQVVLTMTNMDPVDTATYYCARGVPAYSHGGDKWGQGTLVTVSS
VL: DIVMTQSPATLSLSPGERATLSCTSSQSVYHANWLSWFQQKPGQPPKLLIYWASTLAYGVPSRFSGSGSGTDFTLTISSLQPEDAATYYCAGGYGGGRYAFGQGTKVEIKR
notes: also called MS1032LO07-SG1
As to B10, the Kd with mouse latent myostatin [1] came to 0.319 nM; in [2] it was 0.339 nM; with human latent myostatin [3], 0.275 nM; in the test with mouse latent myostatin [4], 30.8 nM; in test [5] it was 34.7 nM; in the test with human latent myostatin [6] it was 46.2 nM. Moreover, the “ratio of KD at pH 5.8/pH7.4” value with mouse latent myostatin [7] stood at 97; in test [8], 102; in the test with human latent myostatin [9] it was 168.
